Measurements as given in patent publication US12123876B2, “Antibody binding to HEG1 and use of the antibody for detection and treatment of mesothelioma” (Kanagawa Prefectural Hospital Organization, priority 2016, dated 2024).

B1: 7.62: SEQ ID NO: 45 (EKVITESKSPSLVSLPTEST) bonded to SLURPgpi (protein)
chain: EKVITESKSPSLVSLPTESTGSLKCYTCKEPMTSASCRTITRCKPEDTACMTTLVTVEAEYPFNQSPVVTRSCSSSCVATDPDSIGAAHLIFCCFRDLCNSELSRDGAPSLGSPGGLLLALALFLLLGVLL
B2: 7.623: SEQ ID NO: 48 (SKSPSLVSLPTEST) bonded to SLURPgpi (protein)
chain: SKSPSLVSLPTESTGSLKCYTCKEPMTSASCRTITRCKPEDTACMTTLVTVEAEYPFNQSPVVTRSCSSSCVATDPDSIGAAHLIFCCFRDLCNSELSRDGAPSLGSPGGLLLALALFLLLGVLL
B3: intelectin-fused antibody: VH and CH1 of SKM9-2 H chain fused to human intelectin positions 19-313, co-expressed with SKM9-2 L chains (protein)
chain: QVQLQQPGAELVRPGASVKLSCKASGFSFTTYWITWVKQRPGQGLEWIGMIHPSDSETRLSQTFKDKATLTVDKSSNTAYMQFSSPTSEDSAVYYCVRDFDVWGAGTTVTVSSAKTTPPSVYPLAPGSAAQTNSMVTLGCLVKGYFPEPVTVTWNSGSLSSGVHTFPAVLQSDLYTLSSSVTVPSSTWPSETVTCNVAHPASSTKVDKKIVPRDCGTDEANTYFKEWTCSSSPSLPRSCKEIKDECPSAFDGLYFLRTENGVIYQTFCDMTSGGGGWTLVASVHENDMRGKCTVGDRWSSQQGSKADYPEGDGNWANYNTFGSAEAATSDDYKNPGYYDIQAKDLGIWHVPNKSPMQHWRNSALLRYRTDTGFLQTLGHNLFGIYQKYPVKYGEGKCWTDNGPVIPVVYDFGDAQKTASYYSPYGQREFTAGFVQFRVFNNERAANALCAGMRVTGCNTEHHCIGGGGYFPEASPQQCGDFSGFDWSGYGTHVGYSSSREITEAAVLLFYR
light: DVLMTQTPLSLPVSLGDQASISCRSSQNIVHNNGNTYLGWYLQKPGQSPKLLIFKVSNRFSGVPDRFSGSGSGTDFTLKISRVEAEDLGVYYCFQGSHIPRTFGGGTRLEIKRADAAPTVSIFPPSSEQLTSGGASVVCFLNNFYPKDINVKWKIDGSERQNGVLNSWTDQDSKDSTYSMSSTLTLTKDEYERHNSYTCEATHKTSTSPIVKSFNRNEC

Columns and labels:
SKM9-2 antibody = test: Western blot reactivity of human HEG1 fragments expressed in ACC-MESO-1 with SKM9-2 antibody; type: binding, mouse; conditions: Western blot of cell lysate
Procedure: In this Example, the mesothelioma cell line ACC-MESO-1 was allowed to express a human HEG1 fragment with the endogenous HEG1 of ACC-MESO-1 knocked down, and the reactivity with the SKM9-2 antibody was examined. Subsequently, the reactivity with the antibody was tested for the epitope region through alanine scanning, and key amino acids for binding to the antibody were determined.
Gene transfer was performed with HEG1 siRNA (H9106) (SEQ ID NOs: 40, 41) and human HEG1 for the mesothelioma cell line ACC-MESO-1, and the reactivity of the SKM9-2 was examined through Western blot analysis. A full length protein (HEG1 full length) or a fragment (HEG1 3 kb, HEG1 2 kb, or HEG1 1 kb) of the human HEG1 was used. The full length human HEG1 protein, a protein having the amino acid sequence set forth in SEQ ID NO: 35, was obtained through inserting a base sequence set forth in SEQ ID NO: 34 into pFLAG-CMV1 (Sigma-Aldrich Japan K.K.) to obtain a plasmid, transforming the plasmid, and allowing the mesothelioma cell line to express the plasmid. Fragment HEG1 3 kb was obtained through inserting a fragment corresponding to a sequence from position 285, leucine, to position 1387, phenylalanine, of SEQ ID NO: 35 into pFLAG-CMV1 (Sigma-Aldrich Japan K.K.) in an in-frame manner, and allowing the mesothelioma cell line to express the resultant. HEG1 2 kb and HEG1 1 kb were obtained through allowing the mesothelioma cell line to express products similarly obtained from a fragment corresponding to a sequence from position 677, leucine, to position 1387, phenylalanine, of SEQ ID NO: 35 and a fragment corresponding to a sequence from position 992, valine, to position 1387, phenylalanine, of SEQ ID NO: 35, respectively. Each cell lysate was analyzed through Western blot with the SKM9-2 antibody.
Further, the region in exon 7 of HEG1 was analyzed in detail. The amino acid sequence of a part of exon 7 of HEG1 was connected to the N-terminal side of a protein obtained by connecting a GPI anchor signal to human SLURP1 (SEQ ID NO: 42; hereinafter referred to as “SLURPgpi”) to produce a fusion protein, and the reactivity of the SKM9-2 was examined through Western blot analysis with the fusion protein. A signal sequence (SEQ ID NO: 43) was added to the N-terminal of the fusion protein before expression.
Used fusion proteins of a partial sequence of exon 7 of HEG1 and SLURPgpi were as follows: • a fragment obtained by bonding a fragment from amino acid No. 783, aspartic acid, to amino acid No. 991, serine, to SLURPgpi (7.6); • a fragment obtained by bonding a fragment from amino acid No. 832, glutamine, to amino acid No. 991, serine, to SLURPgpi (7.7); • a fragment obtained by bonding a fragment from amino acid No. 886, glutamine, to amino acid No. 991, serine, to SLURPgpi (7.8); • a fragment obtained by bonding a fragment from amino acid No. 941, alanine, to amino acid No. 991, serine, to SLURPgpi (7.9); • a fragment obtained by bonding SEQ ID NO: 44 to SLURPgpi (7.61); • a fragment obtained by bonding SEQ ID NO: 45 to SLURPgpi (7.62); • a fragment obtained by bonding SEQ ID NO: 46 to SLURPgpi (7.63); • a fragment obtained by bonding SEQ ID NO: 47 to SLURPgpi (7.64); • a fragment obtained by bonding SEQ ID NO: 48 to SLURPgpi (7.623); • a fragment obtained by bonding SEQ ID NO: 49 to SLURPgpi (7.6231); • a fragment obtained by bonding SEQ ID NO: 50 to SLURPgpi (7.6232); • a fragment obtained by bonding SEQ ID NO: 51 to SLURPgpi (7.6241); and • a fragment obtained by bonding SEQ ID NO: 52 to SLURPgpi (7.6242).

[1] = system: HEG1 protein (purified from ACC-MESO4 or recombinant soluble HEG1); test: Western blot / dot blot reactivity of antibodies with HEG1 protein; type: binding, human; conditions: Western blot, anti-human intelectin antibody-HRP as secondary antibody
Procedure: A massive amount of ACC-MESO4 was cultured, and purification of an antigen from the cell lysate was performed. Cells from 240 10-cm dishes were solubilized with 50 mM Tris buffer (pH 8.0) containing 1% TRITON™ X-100 (detergent), 1% CHAPS, 1 mM EDTA, 50 mM NaCl, and protease inhibitor (Complete, Roche Life Science), and then centrifuged. The resulting supernatant was dialyzed with 20 mM acetate buffer (pH 5.0) at 4° C. for 18 hours to afford an acidic precipitate. The precipitate was extracted with 20 mM Tris buffer (pH 7.2) containing 0.1% TWEEN® 20 (polyethylene glycol sorbitan monolaurate, polyoxyethylenesorbitan monolaurate) and 150 mM NaCl and centrifuged, and the resulting supernatant was concentrated by using an Amicon Ultra-15, 100 kDa (Merck Millipore) and subjected to solution exchange with 20 mM Tris buffer (pH 8.0) containing 6 M guanidine hydrochloride. To the concentrated solution, tris(2-carboxyethyl)phosphine hydrochloride with a final concentration of 10 mM was added, and the resultant was heated at 60° C. for 30 minutes, and iodoacetamide with a final concentration of 40 mM was then added thereto, and reacted at room temperature for 3 hours. The reaction solution was subjected to gel filtration chromatography (SUPEROSE® 6 INCREASE (prepacked column) 10/300 GL (GE Healthcare)) in 20 mM Tris buffer (pH 8.0) containing 6 M guanidine hydrochloride and 0.05% TWEEN® 20 (polyethylene glycol sorbitan monolaurate, polyoxyethylenesorbitan monolaurate), and fractions positive for dot blot were collected. The sample was dialyzed with 25 mM phosphate buffer (pH 7.0) containing 4 M urea and 0.05% TWEEN® 20 (polyethylene glycol sorbitan monolaurate, polyoxyethylenesorbitan monolaurate) at room temperature overnight, and applied to a Mono Q 5/50 GL (GE Healthcare). The column was washed with 25 mM phosphate buffer (pH 7.0) containing 4 M urea and 0.05% TWEEN® 20 (polyethylene glycol sorbitan monolaurate, polyoxyethylenesorbitan monolaurate), and thereafter elution was performed with an NaCl salt concentration gradient of 0 to 1 M. Fractions strongly positive for dot blot were collected, and dialyzed with 25 mM phosphate buffer (pH 7.2) containing 150 mM NaCl and 0.05% TWEEN® 20 (polyethylene glycol sorbitan monolaurate, polyoxyethylenesorbitan monolaurate) at room temperature overnight, and applied to 1 mL of WGA-SEPHAROSE® (wheat germ agglutinin-crosslinked, beaded-form of agarose) (J-OIL MILLS, Inc.). After washing with buffer, elution was performed with 25 mM phosphate buffer (pH 7.2) containing 0.2 M N-acetylglucosamine, 150 mM NaCl, and 0.05% TWEEN® 20 (polyethylene glycol sorbitan monolaurate, polyoxyethylenesorbitan monolaurate), and the eluent was concentrated with a Centricon (YM-30) (Millipore). Gel filtration chromatography (SUPEROSE® 6 INCREASE (prepacked column) 10/300 GL (GE Healthcare)) was performed in 25 mM phosphate buffer (pH 7.2) containing 3 M GdnHCI and 0.5% CHAPS, and fractions strongly positive for dot blot were dialyzed with 20 mM NH4HCO3 containing 0.5% CHAPS at room temperature overnight to afford a purified antigen.
The dot blot was performed as follows. A PVDF membrane (Immobilon-P, Merck Millipore) was soaked in methanol, and then washed and impregnated with pure water. The hydrophilized PVDF membrane was placed on a filter paper containing water to avoid air inclusion, removed of excessive moisture, and soaked with 1 to 5 μL of the sample in dots fed by a micropipette. After the membrane was dried at room temperature overnight, the membrane was hydrophilized again with methanol and pure water, and blocked with 20 mM Tris buffer (pH 7.4) containing 5% skim milk, 0.1% TWEEN® 20 (polyethylene glycol sorbitan monolaurate, polyoxyethylenesorbitan monolaurate), and 150 mM NaCl (blocking buffer) at room temperature for 1 hour. […]

| Molecule | Binding to SKM9-2 antibody (positive/negative) (SKM9-2 antibody) | Binding to SKM9-2 antibody (positive/negative) (SKM9-2 antibody; listed as fragment 7.62) | Binding to SKM9-2 antibody (positive/negative) (SKM9-2 antibody; listed as fragment 7.623) | Recognition of glycosylated HEG1 protein [1] | Recognition of glycosylated HEG1 protein ([1]; listed as protein complex including VH regions and CH1 regions of SKM9-2 antibody fused to) |
| --- | --- | --- | --- | --- | --- |
| B1 | positive | positive signal | – | – | – |
| B2 | positive | – | positive signal | – | – |
| B3 | – | – | – | recognized the glycosylated HEG1 protein | allows detection of HEG1 protein |
